Assay results: PMC6486541 (Nucleic Acids Research, 2019)

T1: OsWRKY45-DBD (OsWRKY45-1) (Oryza sativa Japonica subspecies, UniProt Q5W6D6 104-182)
T1 sequence: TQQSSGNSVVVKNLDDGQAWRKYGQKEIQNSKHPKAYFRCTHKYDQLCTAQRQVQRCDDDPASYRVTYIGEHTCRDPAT

T2: OsWRKY45-DBD R142A (Oryza sativa Japonica subspecies, UniProt Q5W6D6 104-182, R142A)
T2 sequence: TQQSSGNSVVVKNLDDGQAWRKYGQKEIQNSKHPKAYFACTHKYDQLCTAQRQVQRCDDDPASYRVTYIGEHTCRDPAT

T3: OsWRKY45-DBD L150M (= OsWRKY45-2-DBD) (Oryza sativa Japonica subspecies, UniProt Q5W6D6 104-182, L150M)
T3 sequence: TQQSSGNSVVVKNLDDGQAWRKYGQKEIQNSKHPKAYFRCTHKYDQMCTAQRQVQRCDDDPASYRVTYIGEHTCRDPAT


Assays:
[1] = target: T1, OsWRKY45-DBD (OsWRKY45-1); assay: EMSA
[2] = target: the molecule itself; assay: AUC
[3] = target: T2, OsWRKY45-DBD R142A; assay: BLI
[4] = target: T3, OsWRKY45-DBD L150M (= OsWRKY45-2-DBD); assay: BLI
[5] = target: T1, OsWRKY45-DBD (OsWRKY45-1); assay: BLI

Row | Binder | binding result [1] | also measured
1 | MUT11T (dsDNA) DNA 1: GATATTTGACTGGA DNA 2: TCCAGTCAAATATC | binds | 
2 | MUT11A (dsDNA) DNA 1: GATATTTGACAGGA DNA 2: TCCTGTCAAATATC | no binding | 
3 | OsWRKY45–DBD (DNA binding domain of OsWRKY45, residues 104–182) (domain or fragment) TQQSSGNSVVVKNLDDGQAWRKYGQKEIQNSKHPKAYFRCTHKYDQLCTAQRQVQRCDDDPASYRVTYIGEHTCRDPAT |  | stoichiometry N [2]: 2
4 | MUT10A (dsDNA) DNA 1: GATATTTGAACGGA DNA 2: TCCGTTCAAATATC | no binding | 
5 | DNA-1 (W-box DNA) (dsDNA) DNA 1: GATATTTGACCGGA DNA 2: TCCGGTCAAATATC |  | Kd [3]: 13.8 µM; Kd [4]: 7.7 µM; Kd [5]: 4.6 µM
6 | MUT7C (dsDNA) DNA 1: GATATTCGACCGGA DNA 2: TCCGGTCGAATATC | no binding | 
7 | MUT8A (dsDNA) DNA 1: GATATTTAACCGGA DNA 2: TCCGGTTAAATATC | no binding | 
8 | MUT9C (dsDNA) DNA 1: GATATTTGCCCGGA DNA 2: TCCGGGCAAATATC | no binding | 
